# According to paper PMC7954794, “Protein context shapes the specificity of SH3 domain-mediated interactions in vivo” (Nature Communications, 2021):
# B1: YLR314C_1 (protein, UniProt P32457 2-520, looked up)
# Cell division control protein …: SLKEEQVSIKQDPEQEERQHDQFNDVQIKQESQDHDGVDSQYTNGTQNDDSERFEAAESDVKVEPGLGMGITSSQSEKGQVLPDQPEIKFIRRQINGYVGFANLPKQWHRRSIKNGFSFNLLCVGPDGIGKTTLMKTLFNNDDIEANLVKDYEEELANDQEEEEGQGEGHENQSQEQRHKVKIKSYESVIEENGVKLNLNVIDTEGFGDFLNNDQKSWDPIIKEIDSRFDQYLDAENKINRHSINDKRIHACLYFIEPTGHYLKPLDLKFMQSVYEKCNLIPVIAKSDILTDEEILSFKKTIMNQLIQSNIELFKPPIYSNDDAENSHLSERLFSSLPYAVIGSNDIVENYSGNQVRGRSYPWGVIEVDNDNHSDFNLLKNLLIKQFMEELKERTSKILYENYRSSKLAKLGIKQDNSVFKEFDPISKQQEEKTLHEAKLAKLEIEMKTVFQQKVSEKEKKLQKSETELFARHKEMKEKLTKQLKALEDKKKQLELSINSASPNVNHSPVPTKKKGFLR
# B2: YDL146W_1 (protein, UniProt Q12342 1-491, looked up)
# Protein LDB17: MILDPLSPNIENHTQDEIIEFWEKTESIANIPKENLDESHVNSSLVAYLKFATDSYKVFINTDRDLYRMSLILLESSLFEFKKEFCLSKLQSLLNIDLLEMNMKFIIVYILLCEAKKNVYSLEIMLKFQGFTVFYNTLYTQFAYLSKYGKERTVASKHQYNSNNSSTGTSLDSLDRSLTDIDLGIIDEMKQISTVLMDLLFQIMKYCKCVIANLQIVDDFFVYYMMESMRSDTMDDMFNNAEFKLLLALNEQYMMFAKEYDIENKVYKYLINGSVSRCFTELLLLKFNRASDPPLQIMMCKIIYLILTPRGDYSPMNFFYTNDLRVLIDVLIRELQNISEDEEVLRNTLLRVLIPLLKNTQLSKTHYRKDDLNKLLNYLSTLDNICVDSPALHEHQVTVALSRKCLQQIPWLETPSTPSDGGSSVSSNNTSRNSSIVALGTPDNQNILARKGHLYSNRELDVSAESLTKRKAKAPPPPPPPPPSRKCGTPK
# B3: YKL129C_1 (protein, UniProt P36006 1-1272, looked up)
# Myosin-3: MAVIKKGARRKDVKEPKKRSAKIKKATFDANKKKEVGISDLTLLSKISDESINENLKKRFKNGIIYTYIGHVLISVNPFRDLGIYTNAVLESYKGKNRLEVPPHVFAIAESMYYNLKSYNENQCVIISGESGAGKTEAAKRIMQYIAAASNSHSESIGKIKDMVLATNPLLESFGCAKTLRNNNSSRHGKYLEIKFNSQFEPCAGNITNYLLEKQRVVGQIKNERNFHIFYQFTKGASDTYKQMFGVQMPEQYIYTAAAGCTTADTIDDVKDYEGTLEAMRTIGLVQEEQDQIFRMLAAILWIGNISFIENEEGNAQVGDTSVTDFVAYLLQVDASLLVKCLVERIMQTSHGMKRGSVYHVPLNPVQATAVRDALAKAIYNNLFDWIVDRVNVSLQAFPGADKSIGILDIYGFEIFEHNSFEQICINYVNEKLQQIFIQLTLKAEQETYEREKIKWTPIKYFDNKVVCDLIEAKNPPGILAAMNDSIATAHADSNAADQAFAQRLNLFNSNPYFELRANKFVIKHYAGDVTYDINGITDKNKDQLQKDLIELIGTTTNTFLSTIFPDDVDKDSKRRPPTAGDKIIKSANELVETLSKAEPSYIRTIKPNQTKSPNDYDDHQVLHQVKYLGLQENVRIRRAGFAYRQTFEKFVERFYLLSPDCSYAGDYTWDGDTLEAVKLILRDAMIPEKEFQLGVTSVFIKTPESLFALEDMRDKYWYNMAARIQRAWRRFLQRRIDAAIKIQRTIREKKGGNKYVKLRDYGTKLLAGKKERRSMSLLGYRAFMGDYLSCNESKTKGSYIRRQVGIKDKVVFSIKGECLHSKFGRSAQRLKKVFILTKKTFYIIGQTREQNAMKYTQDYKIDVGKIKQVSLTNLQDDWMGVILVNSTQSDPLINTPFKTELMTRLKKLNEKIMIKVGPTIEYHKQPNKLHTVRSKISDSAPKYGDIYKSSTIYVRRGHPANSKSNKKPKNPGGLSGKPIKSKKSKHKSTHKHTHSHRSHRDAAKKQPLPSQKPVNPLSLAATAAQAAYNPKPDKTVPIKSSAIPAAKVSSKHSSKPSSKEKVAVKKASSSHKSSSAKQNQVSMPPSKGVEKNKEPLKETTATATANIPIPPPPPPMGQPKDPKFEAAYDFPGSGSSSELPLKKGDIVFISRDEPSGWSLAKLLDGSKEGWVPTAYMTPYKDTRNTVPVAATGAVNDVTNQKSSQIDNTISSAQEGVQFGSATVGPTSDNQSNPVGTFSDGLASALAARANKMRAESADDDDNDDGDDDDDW
# B4: YLR332W_1 (protein, UniProt P36027 26-376, looked up)
# Cell wall integrity sensor …: QFFVQSSSSNSSAVSTARSSVSRVSSSSSILSSSMVSSSSADSSSLTSSTSSRSLVSHTSSSTSIASISFTSFSFSSDSSTSSSSSASSDSSSSSSFSISSTSATSESSTSSTQTSTSSSSSLSSTPSSSSSPSTITSAPSTSSTPSTTAYNQGSTITSIINGKTILSNHYTTVTYTPSATADSSNKSKSSGLSKKNRNIVIGCVVGIGVPLILVILALIYMFCIQSSRTDFIDSDGKVVTAYRANKFTKWWYMLLGKKVSDEYHSDSPLGGSASSAGGLDLDEADDVMEQSSLFDVRIRDSDSVLPNANTADHNNTNSGGEPINSSVASNDIIEEKFYDEQGNELSPRNY
# B5: YLR258W_2 (protein, UniProt P27472 1-705, looked up)
# Glycogen [starch] synthase …: MSRDLQNHLLFETATEVANRVGGIYSVLKSKAPITVAQYKDHYHLIGPLNKATYQNEVDILDWKKPEAFSDEMRPVQHALQTMESRGVHFVYGRWLIEGAPKVILFDLDSVRGYSNEWKGDLWSLVGIPSPENDFETNDAILLGYTVAWFLGEVAHLDSQHAIVAHFHEWLAGVALPLCRKRRIDVVTIFTTHATLLGRYLCASGSFDFYNCLESVDVDHEAGRFGIYHRYCIERAAAHSADVFTTVSQITAFEAEHLLKRKPDGILPNGLNVIKFQAFHEFQNLHALKKEKINDFVRGHFHGCFDFDLDNTLYFFIAGRYEYKNKGADMFIEALARLNYRLKVSGSKKTVVAFIVMPAKNNSFTVEALKGQAEVRALENTVHEVTTSIGKRIFDHAIRYPHNGLTTELPTDLGELLKSSDKVMLKRRILALRRPEGQLPPIVTHNMVDDANDLILNKIRQVQLFNSPSDRVKMIFHPEFLNANNPILGLDYDEFVRGCHLGVFPSYYEPWGYTPAECTVMGVPSITTNVSGFGAYMEDLIETNQAKDYGIYIVDRRFKAPDESVEQLVDYMEEFVKKTRRQRINQRNRTERLSDLLDWKRMGLEYVKARQLALRRGYPDQFRELVGEELNDSNMDALAGGKKLKVARPLSVPGSPRDLRSNSTVYMTPGDLGTLQEVNNADDYFSLGVNPAADDDDDGPYADDS
# B6: YER114C_1 (protein, UniProt P39969 1-1040, looked up)
# BEM1-interacting protein 2: MSNDREVPTLSQLNTTVSRDKDVSDTLSPDFDSKGSATGRDGGNFPMYIAINEYFKRMEDELDMKPGDKIKVITDDEEYKDGWYFGRNLRTNEEGLYPVVFTQKITVEKAPTLMRAKSTKRIYSPLTNEDPLLSSTFISENDSNSELPTPQPIETAASISRTANGKIERNLSLKNTMSDIDNALLEFKDDSIGPPDRFINSGRDEEHSITHETILSATDGLDVVESNSKPTTSSSTGFLNGDLENQATLINGIDTTKLNPVEAEFWSPEEITAYFIMEGYDVQSASRFQKHKISGKILLELELVHLKELDINSFGTRFEIFKEIEKIKEAIRTNGRSLNRASKTNNANIYNQLMPPANVDQRASYRGHVRKTSQSLEDLPSQQNFIPTPRNTRNSSASKHRPKSLVFDSQEANANIAPDVQIPQVVEEMAGNENLFVSPRRAPKPPSYPSPAQPPKSPLLNNTRTSPSPAQLYSWQSPTLSFSGPKRTSYIDQYSSSDSNFNSRSALPKNNQGGGKALSPIPSPTRNSVRNEDSEGKLTSSSKRNSVPYYGYAPESSSDRKSSCSSHEEEQFQETMNTFERPTSSIYADGSTIASISNDKLAHEKEGKKKPTRHSSSLSSKSKSDSRRNSSLKRSSSASRTSSFKKSSFMLSPFRQQFTDNAARSSSPEENPITSMPSEKNSSPIVDKKSSKKSRSKRRSVSAKEAEIFTETVKDDKNKRSASEAIKGETLKGKSLRQMTARPVAKKKQTSAFIEGLRSISVKEAMKDADFSGWMSKKGSGAMSTWKTRFFTLHGTRLSYFSSTTDTRERGLIDITAHRVVPAKEDDKLVSLYAASTGKGRYCFKLLPPQPGSKKGLTFTQPRTHYFAVDNKEEMRGWMAALIKTTIDIDTSVPIISSYTTPTVSLSKAQEMLAEAREETKLREQQMLENEEDEDQFLWDQQQLQQQQHDNNQGQADRTISASTQRTSDEDNTISTPNLSSANNTTIGSNGFSSPFLLASGLLSPGVARNSSMRGTEKKGKFSTEEDYFGDNSKHKTDKI
# B7: YJR076C_1 (protein, UniProt P32458 2-415, looked up)
# Cell division control protein …: SGIIDASSALRKRKHLKRGITFTVMIVGQSGSGRSTFINTLCGQQVVDTSTTILLPTDTSTEIDLQLREETVELEDDEGVKIQLNIIDTPGFGDSLDNSPSFEIISDYIRHQYDEILLEESRVRRNPRFKDGRVHCCLYLINPTGHGLKEIDVEFIRQLGSLVNIIPVISKSDSLTRDELKLNKKLIMEDIDRWNLPIYNFPFDEDEISDEDYETNMYLRTLLPFAIIGSNEVYEMGGDVGTIRGRKYPWGILDVEDSSISDFVILRNALLISHLHDLKNYTHEILYERYRTEALSGESVAAESIRPNLTKLNGSSSSSTTTRRNTNPFKQSNNINNDVLNPASDMHGQSTGENNETYMTREEQIRLEEERLKAFEERVQQELLLKRQELLQREKELREIEARLEKEAKIKQEE
# System: PPIs identified as affected by the SH3 domain deletions
# Experiment: Liquid DHFR-PCA low-throughput validation of PPIs affected by SH3 deletion (Fig. S1D-E)
# Format: cell-based, Saccharomyces cerevisiae
# Conditions: label = prey, liquid DHFR-PCA, prey _1 = lost, _2 = gained in screen
# How it was run: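 Growth at 30 °C was tracked by OD each 15 min over 72 h in agar-free PCA selection medium, starting at 0.1 OD. Cells were diploids selected after mating, first cultured 48 h with NAT and HPH in synthetic complete MSG medium, pH 6.0.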
molecule,measurement,setting,value
B1,Ratio (Deletedscore / WTscore),bait BEM1-2,0.9934
same,Ratio (Deletedscore / WTscore),bait NBP2,0.9977
B2,Ratio (Deletedscore / WTscore),bait BZZ1-1,0.5572
same,Ratio (Deletedscore / WTscore),bait BZZ1-2,0.7122
same,Ratio (Deletedscore / WTscore),bait LSB3,0.6902
B3,Ratio (Deletedscore / WTscore),bait BZZ1-1,0.69
same,Ratio (Deletedscore / WTscore),bait PIN3,0.7986
B4,Ratio (Deletedscore / WTscore),bait CDC25,0.4625
same,Ratio (Deletedscore / WTscore),bait NBP2,0.9277
B5,Ratio (Deletedscore / WTscore),bait ABP1,1.221
B6,Ratio (Deletedscore / WTscore),bait BEM1-2,0.3794
B7,Ratio (Deletedscore / WTscore),bait BEM1-2,0.6782
same,Ratio (Deletedscore / WTscore),bait MYO3,0.8182
same,Ratio (Deletedscore / WTscore),bait MYO5,0.9436
same,Ratio (Deletedscore / WTscore),bait RVS167,1.148
